Measured values reported in PMC4072727, “Selection and Characterization of a DNA Aptamer That Can Discriminate between cJun/cJun and cJun/cFos”.

B1: aptamer-19 (structured_DNA)
DNA: GGGAGATCACTTACGGCACCGTATAGTCGTACATGAACGAGTGTGAGTGTTAAGCCTTTGGCGACAGGGCTCGGAACC
B2: aptamer-16 (structured_DNA)
DNA: GGGAGATCACTTACGGCACCCGGAGGGTCGTTACCCACTGTTTGTTGGTATAAAGCCTGGCGACAGGGCTCGGAACC
B3: aptamer-1 (structured_DNA)
DNA: GGGAGATCACTTACGGCACCAGTCGTCGTTACTGCATTGCTCTATGGAGTATAAGCCCTGCGACAGGGCTCGGAACC
B4: AP-1 DNA (dsDNA)
DNA 1: AGGTCGTGACTCAGCGG
DNA 2: CCGCTGAGTCACGACCT
B5: aptamer-19(12-74) (structured_DNA)
DNA: TACGGCACCGTATAGTCGTACATGAACGAGTGTGAGTGTTAAGCCTTTGGCGACAGGGCTCGG
B6: aptamer-27 (structured_DNA)
DNA: GGGAGATCACTTACGGCACCAACGTCTCGTTGGTCGTTCCAGCGTTCTAGATGGATTCAGGCGACAGGGCTCGGAACC

Assays:
[1] = molecular target: T1, cJun (cJun/cJun homodimer) (UniProt P05412 1-331, C269S); experiment: DNase I footprinting; broad protection; EMSA: 100 mM KCl, 4 mM MgCl2, 20 mM Tris pH 7.9, 20 mM HEPES pH 7.9, 10% glycerol, 0.1 mM DTT, 60 ug/ml BSA, 0.06% NP-40, 50 ng poly(dI-dC), on ice; 50 pM 32P-D; conditions: protein: recombinant; chain copies: 2; label: 32P; three stem-loops, nt 13-68
[2] = molecular target: T1, cJun (cJun/cJun homodimer); experiment: competition; vs Cy5-labeled AP-1 DNA; EMSA: 100 mM KCl, 4 mM MgCl2, 20 mM Tris pH 7.9, 20 mM HEPES pH 7.9, 10% glycerol, 0.1 mM DTT, 60 ug/ml BSA, 0.06% NP-40, 50 ng poly(dI-dC), on ice; 50 pM 32P-D; conditions: protein: recombinant; chain copies: 2; hairpin
[3] = molecular target: T2, cJun (cJun/cJun homodimer);cFos (in cJun/cFos heterodimer) (;, UniProt P05412;P01100 1-331;1-380, C269S|C154S); experiment: EMSA; 0.4-6.5 nM protein; EMSA: 100 mM KCl, 4 mM MgCl2, 20 mM Tris pH 7.9, 20 mM HEPES pH 7.9, 10% glycerol, 0.1 mM DTT, 60 ug/ml BSA, 0.06% NP-40, 50 ng poly(dI-dC), on ice; 50 pM 32P-D; conditions: protein: recombinant;recombinant; tags: ;6His; copies: 1;1; label: 5'-FAM or 32P
[4] = molecular target: T1, cJun (cJun/cJun homodimer); experiment: EMSA; 0.4-6.5 nM; low or sub-nanomolar; EMSA: 100 mM KCl, 4 mM MgCl2, 20 mM Tris pH 7.9, 20 mM HEPES pH 7.9, 10% glycerol, 0.1 mM DTT, 60 ug/ml BSA, 0.06% NP-40, 50 ng poly(dI-dC), on ice; 50 pM 32P-D; conditions: protein: recombinant; chain copies: 2; label: 5'-FAM or 32P
[5] = molecular target: T1, cJun (cJun/cJun homodimer); experiment: EMSA; EMSA: 100 mM KCl, 4 mM MgCl2, 20 mM Tris pH 7.9, 20 mM HEPES pH 7.9, 10% glycerol, 0.1 mM DTT, 60 ug/ml BSA, 0.06% NP-40, 50 ng poly(dI-dC), on ice; 50 pM 32P-D; conditions: protein: recombinant, chain copies: 2
[6] = molecular target: T2, cJun (cJun/cJun homodimer);cFos (in …); experiment: EMSA; higher affinity than cJun/cJun; EMSA: 100 mM KCl, 4 mM MgCl2, 20 mM Tris pH 7.9, 20 mM HEPES pH 7.9, 10% glycerol, 0.1 mM DTT, 60 ug/ml BSA, 0.06% NP-40, 50 ng poly(dI-dC), on ice; 50 pM 32P-D; conditions: protein: recombinant;recombinant; tags: ;6His; copies: 1;1; label: 32P or 5'-Cy5; blunt

Binder	binding result [3]	binding result [4]	other results
B1			binding result [1]: binds
GTCCAAATCTCAGAAGAGACACACTCTTCTGAGATTTGGAC (structured_DNA) [mutant AP-1 decoy (hairpin)]			binding result [2]: no binding
B2	no binding	binds	
B3	no binding	binds	
B4			Kd ([5]; label: 32P or 5'-Cy5, blunt): ~15 nM; binding result [6]: binds
B5			Kd ([5]; label: 32P, three stem-loops, nt 13-68): 0.5 nM
B6	no binding	binds	
GTCCATGACTCAGAAGAGACACACTCTTCTGAGTCATGGAC (structured_DNA) [AP-1 DNA decoy (hairpin)]			binding result [2]: binds
